The target of this experiment is T1, ZNRF3 ECD (UniProt Q9ULT6 56-219, limits assumed).
T1 construct: extracellular domain; also called ZNRF3 extracellular domain; fluorescently labeled ZNRF3 ECDs
T1 sequence (looked up): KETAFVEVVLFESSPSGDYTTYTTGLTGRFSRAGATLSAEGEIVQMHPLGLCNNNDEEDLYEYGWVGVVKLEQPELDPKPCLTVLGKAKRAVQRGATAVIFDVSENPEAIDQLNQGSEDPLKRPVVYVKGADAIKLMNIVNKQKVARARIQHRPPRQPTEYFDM
Briefly: surface plasmon resonance (FIG. 3B). For orientation: In SPR one partner is held on a chip, and binding of the other changes the refractive index at the surface.

B1: ZNRF3-specific scFv "Z6" (scFv)
scFv: ASQVQLVQSGAEVKNPGASVKVSCKASGYAFTSYGISWVRQAPGQGLEWMGWISAYTRNTNYAQKFQGRVTLTTDTSTSTAYMELRSLRSDDTAIYYCARDARYSLGVGAFDVWGQGTMVTVSSGILGSGGGGSGGGGSGGGGSETTLTQSPAFMSATPGDKVSISCKASRDIDDDLNWYQQKPGEAAISIIQEATTLVPGIPPRFSGSGYGTDFTLTINNIESEDAAYYFCLQHDDVPYTFGQGTKLEIKSGIL
notes: the display fusion is not described; also called ZNRF3-specific single-chain antibody variable fragment (scFv)
With B1, the Kd – broadly, the constant that tells how readily two partners part at equilibrium – amounted to 80 nM.

For the origin of these results see US20220041753A1 (H LEE MOFFITT CANCER CENTER AND RESEARCH INSTITUTE, published 2022).
